Assay results as given in patent publication US20070197442A1, “Methods for the Treatment of Macular Degeneration and Related Eye Conditions” (priority 2006, published 2007).

Assays:
LCAT = molecular target: T1, LCAT (Homo sapiens, UniProt P04180); assay: in vitro LCAT activation; format: biochemical; conditions: in the presence of lipids; % of the activity of native apoA-I
T1 sequence (P04180 25-440): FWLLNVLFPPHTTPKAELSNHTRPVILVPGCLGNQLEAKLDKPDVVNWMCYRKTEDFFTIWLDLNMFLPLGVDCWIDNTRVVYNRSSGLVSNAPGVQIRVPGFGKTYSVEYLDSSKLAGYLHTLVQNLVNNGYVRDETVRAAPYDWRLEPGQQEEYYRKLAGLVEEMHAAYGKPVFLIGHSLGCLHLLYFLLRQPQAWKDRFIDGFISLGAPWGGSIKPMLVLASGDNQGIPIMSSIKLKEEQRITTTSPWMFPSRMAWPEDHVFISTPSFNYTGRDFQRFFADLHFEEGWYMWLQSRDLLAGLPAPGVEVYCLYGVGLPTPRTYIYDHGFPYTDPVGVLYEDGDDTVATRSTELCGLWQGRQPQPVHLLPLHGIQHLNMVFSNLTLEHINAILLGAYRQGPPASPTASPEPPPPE
From the text: ESP24218 (SEQ ID NO:1), the peptide component of the peptide/phospholipid complex, is a 22 amino acid peptide having a helical structure and amphipathic properties designed based on the helical repeats of apoA-I. In the presence of lipids, this peptide approaches 100% of the activity of native apoA-I in in vitro LCAT activation. The peptide can be prepared by chemical synthesis using any technique known to those of skill in the art. The peptide can be prepared by the synthetic techniques described in U.S. Pat. No. 6,004,925, incorporated herein by reference in its entirety for all purposes. Typically, ESP24218 (SEQ ID NO:1) is produced by a stepwise chemical synthesis on a solid support. In preferable embodiments, all amino acids in the peptide are natural L-α-amino acids in configuration. Generally, the amino and carboxyl termini of the peptide are free. The amino acid sequence of ESP24218 (SEQ ID NO:1) is shown in FIG. 1, which is as follows: H-[…]OH. The phospholipid can be obtained from any source known to those of skill in the art. […]

[1] = tested on: apo E expression in HepG2 cells; conditions: cited from earlier work

activity in in vitro LCAT activation relative to native apoA-I (LCAT) [%] | Substance | increase of expression of apo E [1]
~100 | H-Pro-Val-Leu-Asp-Leu-Phe-Arg-Glu-Leu-Leu-Asn-Glu-Leu-Leu-Glu-Ala-Leu-Lys-Gln-Lys-Leu-Lys-OH [ESP24218] | 
 | Thyroid hormone | three
